Source: US20200172956A1 (NATIONAL UNIVERSITY CORPORATION KUMAMOTO UNIVERSITY, published 2020)

Target: T1, type IV collagen α3-SmBiT (fusion protein having SmBiT at the C-terminal of wild-type type IV collagen α3(IV) … (Homo sapiens (Human), UniProt Q01955 43-1670))
T1 construct: also called α3 chain; COL4A3 in pFC36K SmBiT vector
Test: split luciferase (NanoBiT) luminescence in culture supernatant of HEK293T cells co-expressing the domain-deleted α5 fusion with α3 and α4 chains

T1 sequence (Q01955 other isoform, or with tags, fused parts or gaps): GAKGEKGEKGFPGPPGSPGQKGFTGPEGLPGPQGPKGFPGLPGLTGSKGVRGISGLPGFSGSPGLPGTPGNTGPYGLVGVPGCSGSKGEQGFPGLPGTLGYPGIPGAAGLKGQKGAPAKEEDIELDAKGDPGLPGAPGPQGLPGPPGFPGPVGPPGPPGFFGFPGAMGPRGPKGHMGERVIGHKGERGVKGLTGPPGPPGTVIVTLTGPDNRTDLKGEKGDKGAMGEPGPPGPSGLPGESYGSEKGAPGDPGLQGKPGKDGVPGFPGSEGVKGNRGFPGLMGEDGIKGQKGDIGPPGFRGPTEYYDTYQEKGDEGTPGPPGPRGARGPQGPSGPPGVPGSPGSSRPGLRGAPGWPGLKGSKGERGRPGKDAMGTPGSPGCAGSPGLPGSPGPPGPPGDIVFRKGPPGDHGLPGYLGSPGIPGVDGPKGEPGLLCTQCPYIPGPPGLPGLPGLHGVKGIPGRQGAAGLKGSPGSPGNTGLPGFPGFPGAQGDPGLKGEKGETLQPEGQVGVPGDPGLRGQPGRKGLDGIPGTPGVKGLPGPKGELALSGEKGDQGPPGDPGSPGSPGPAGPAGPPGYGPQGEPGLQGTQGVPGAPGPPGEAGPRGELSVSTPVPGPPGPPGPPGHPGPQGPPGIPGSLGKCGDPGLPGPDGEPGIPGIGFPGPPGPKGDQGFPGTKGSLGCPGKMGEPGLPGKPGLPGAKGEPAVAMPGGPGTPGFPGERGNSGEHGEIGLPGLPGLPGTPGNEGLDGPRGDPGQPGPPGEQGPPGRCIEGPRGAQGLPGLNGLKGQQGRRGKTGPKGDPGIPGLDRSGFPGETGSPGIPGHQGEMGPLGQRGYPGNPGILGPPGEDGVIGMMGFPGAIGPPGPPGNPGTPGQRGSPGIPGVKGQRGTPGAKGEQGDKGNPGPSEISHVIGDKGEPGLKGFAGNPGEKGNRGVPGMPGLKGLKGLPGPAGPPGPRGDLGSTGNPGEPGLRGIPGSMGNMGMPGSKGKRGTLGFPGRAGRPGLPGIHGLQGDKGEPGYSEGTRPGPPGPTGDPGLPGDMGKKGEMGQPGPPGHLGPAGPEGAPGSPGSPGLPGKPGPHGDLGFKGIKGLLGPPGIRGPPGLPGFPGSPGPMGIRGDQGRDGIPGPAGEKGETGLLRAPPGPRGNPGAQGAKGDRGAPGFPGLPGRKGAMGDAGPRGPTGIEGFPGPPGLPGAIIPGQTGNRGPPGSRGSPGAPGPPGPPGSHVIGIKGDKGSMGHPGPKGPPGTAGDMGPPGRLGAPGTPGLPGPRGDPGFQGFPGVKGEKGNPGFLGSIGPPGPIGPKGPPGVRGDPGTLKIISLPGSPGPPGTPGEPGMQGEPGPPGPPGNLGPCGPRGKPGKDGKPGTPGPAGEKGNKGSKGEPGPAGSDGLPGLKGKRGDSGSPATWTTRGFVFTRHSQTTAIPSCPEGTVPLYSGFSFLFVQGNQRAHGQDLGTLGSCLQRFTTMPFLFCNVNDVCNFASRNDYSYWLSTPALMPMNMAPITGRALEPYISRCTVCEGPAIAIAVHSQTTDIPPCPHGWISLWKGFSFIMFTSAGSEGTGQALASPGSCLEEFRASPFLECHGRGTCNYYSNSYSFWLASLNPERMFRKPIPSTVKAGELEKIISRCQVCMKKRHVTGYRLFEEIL

B1: fusion protein having a split luciferase fragment at the C terminal of the NC1 domain of wild-type α5 chain (COL domain-deleted α5 chain) (other)
chain: GFLITRHSQTTDAPQCPQGTLQVYEGFSLLYVQGNKRAHGQDLGTAGSCLRRFSTMPFMFCNINNVCNFASRNDYSYWLSTPEPMPMSMQPLKGQSIQPFISRCAVCEAPAVVIAVHSQTIQIPHCPQGWDSLWIGYSFMMHTSAGAEGSGQALASPGSCLEEFRSAPFIECHGRGTCNYYANSYSFWLATVDVSDMFSKPQSETLKAGDLRTRISRCQVCMKRTMVFTLEDFVGDWEQTAAYNLDQVLEQGGVSSLLQNLAVSVTPIQRIVRSGENALKIDIHVIIPYEGLSADQMAQIEEVFKVVYPVDDHHFKVILPYGTLVIDGVTPNMLNYFGRPYEGIAVFDGKKITVTGTLWNGNKIIDERLITPDGSMLFRVTINS
notes: The residue range is converted from nucleotide numbers; also called 4COL (so in the source); probably ΔCOL
binding result: no binding
